Among the data in the Immune Epitope Database (IEDB) are Kd and IC50 values, retold here.

One test addresses HLA-C*12:03. As to the kind of experiment: IEDB peptide-MHC binding, purified MHC/direct/fluorescence; filed as Kd, often an IC50 or EC50 that approximates it; ≥ and ≤ were set here for values at or beyond the usual limits of such assays.
For another test, the target named is HLA-B*40:01. Briefly: IEDB peptide-MHC binding, purified MHC/competitive/fluorescence; filed as Kd, often an IC50 or EC50 that approximates it; ≥ and ≤ were set here for values at or beyond the usual limits of such assays.
Test [1] has as its target HLA-B*08:01. As to the kind of experiment: IEDB peptide-MHC binding, purified MHC/competitive/fluorescence; ≥ and ≤ were set here for values at or beyond the usual limits of such assays.
Test [2] deals with HLA-A*02:01. The test is described as above.
For test [3], the target named is HLA-B*15:01. The description is as above. The conditions noted are these: source organism: Vaccinia virus WR.
A further test deals with HLA-B*07:02. Briefly: IEDB peptide-MHC binding, purified MHC/competitive/fluorescence; filed as Kd, often an IC50 or EC50 that approximates it; ≥ and ≤ were set here for values at or beyond the usual limits of such assays.
The target of test [4] is HLA-A*03:01. As to the kind of experiment: IEDB peptide-MHC binding, purified MHC/competitive/fluorescence; ≥ and ≤ were set here for values at or beyond the usual limits of such assays.
The target of a further test is HLA-C*06:02. As to the kind of experiment: IEDB peptide-MHC binding, purified MHC/direct/fluorescence; filed as Kd, often an IC50 or EC50 that approximates it; ≥ and ≤ were set here for values at or beyond the usual limits of such assays. The conditions noted are these: source organism: Vaccinia virus L-IPV.
Another test concerns the target HLA-A*02:02. Briefly: IEDB peptide-MHC binding, purified MHC/competitive/radioactivity; filed as Kd, often an IC50 or EC50 that approximates it; ≥ and ≤ were set here for values at or beyond the usual limits of such assays. The conditions noted are these: source organism: Vaccinia virus WR.
A further test addresses HLA-A*02:06. Described as above. The conditions noted are these: source organism: Vaccinia virus WR.
For a further test, the target named is HLA-A*02:03. The description is as above. The conditions noted are these: source organism: Vaccinia virus WR.
The target of test [5] is HLA-A*02:01. The test is described as above. The conditions noted are these: source organism: Vaccinia virus WR.
Test [6] deals with HLA-A*03:01. Briefly: IEDB peptide-MHC binding, purified MHC/competitive/fluorescence; filed as Kd, often an IC50 or EC50 that approximates it; ≥ and ≤ were set here for values at or beyond the usual limits of such assays.
In another test the target is HLA-A*31:01. The description is as above.
Test [7] addresses HLA-A*11:01. As to the kind of experiment: IEDB peptide-MHC binding, purified MHC/direct/fluorescence; filed as Kd, often an IC50 or EC50 that approximates it; ≥ and ≤ were set here for values at or beyond the usual limits of such assays.
Test [8] concerns the target HLA-A*03:01. Described as above.
The target of a further test is HLA-A*24:02. As to the kind of experiment: IEDB peptide-MHC binding, purified MHC/competitive/fluorescence; ≥ and ≤ were set here for values at or beyond the usual limits of such assays. The conditions noted are these: source organism: Zaire ebolavirus.
For a further test, the target named is HLA-B*51:01. As to the kind of experiment: IEDB peptide-MHC binding, purified MHC/competitive/fluorescence; filed as Kd, often an IC50 or EC50 that approximates it; ≥ and ≤ were set here for values at or beyond the usual limits of such assays.
For test [9], the target named is HLA-B*15:01. The description is as above.
Another test has as its target HLA-B*46:01. The test is described as above. The conditions noted are these: source organism: Giardia lamblia ATCC 50803.
In the next test the target is HLA-B*27:03. The test is described as above. The conditions noted are these: source organism: Giardia lamblia ATCC 50803.
The target in the next test is HLA-B*15:17. Described as above. The conditions noted are these: source organism: Giardia lamblia ATCC 50803.
The target of another test is HLA-B*57:01. The description is as above. The conditions noted are these: source organism: Giardia lamblia ATCC 50803.
The next test has as its target HLA-B*18:01. The description is as above. The conditions noted are these: source organism: Giardia lamblia ATCC 50803.
The target of another test is HLA-A*26:01. The description is as above. The conditions noted are these: source organism: Giardia lamblia ATCC 50803.
Test [10] addresses HLA-A*11:01. As to the kind of experiment: IEDB peptide-MHC binding, purified MHC/competitive/fluorescence; ≥ and ≤ were set here for values at or beyond the usual limits of such assays. The conditions noted are these: source organism: Variola virus.
In the next test the target is HLA-A*01:01. As to the kind of experiment: IEDB peptide-MHC binding, purified MHC/competitive/fluorescence; filed as Kd, often an IC50 or EC50 that approximates it; ≥ and ≤ were set here for values at or beyond the usual limits of such assays.
In test [11] the target is HLA-B*08:01. The description is as above. The conditions noted are these: source organism: Escherichia coli.
A further test concerns the target HLA-B*39:01. Described as above. The conditions noted are these: source organism: Escherichia coli.
A further test concerns the target HLA-A*02:19. Briefly: IEDB peptide-MHC binding, purified MHC/direct/fluorescence; filed as Kd, often an IC50 or EC50 that approximates it; ≥ and ≤ were set here for values at or beyond the usual limits of such assays. The conditions noted are these: source organism: Orthohantavirus sangassouense.
The target of a further test is HLA-A*02:11. Described as above. The conditions noted are these: source organism: Orthohantavirus sangassouense.
For another test, the target named is HLA-A*02:12. The test is described as above. The conditions noted are these: source organism: Orthohantavirus sangassouense.
The target of test [12] is HLA-A*02:01. The description is as above. The conditions noted are these: source organism: Orthohantavirus hantanense.
In the next test the target is HLA-A*69:01. The description is as above. The conditions noted are these: source organism: Orthohantavirus hantanense.
The target in another test is HLA-B*15:42. Briefly: IEDB peptide-MHC binding, purified MHC/competitive/fluorescence; filed as Kd, often an IC50 or EC50 that approximates it; ≥ and ≤ were set here for values at or beyond the usual limits of such assays. The conditions noted are these: source organism: Homo sapiens.
The next test concerns the target HLA-B*83:01. The description is as above. The conditions noted are these: source organism: Homo sapiens.
A further test addresses HLA-A*29:02. The description is as above. The conditions noted are these: source organism: Homo sapiens.
Another test deals with HLA-B*45:06. The description is as above. The conditions noted are these: source organism: Homo sapiens.
The mark [13] stands for this setting: source organism: Vaccinia virus WR.
Setting [14] is: source organism: Influenza A virus (A/nt/60/1968(H3N2)).
The mark [15] stands for this setting: source organism: Zaire ebolavirus.
The mark [16] stands for this setting: source organism: Sudan ebolavirus.
Where [17] appears, read: source organism: Francisella tularensis subsp. holarctica LVS.
[18] abbreviates: source organism: Shigella boydii CDC 3083-94.
[19] abbreviates: source organism: Giardia lamblia ATCC 50803.
[20] abbreviates: source organism: Listeria monocytogenes.

By Kd is commonly meant a measure of binding affinity in units of concentration. YQFTGIKKY: the Kd with HLA-C*12:03 (source organism: Homo sapiens) is at most 1 nM.

In the test with HLA-C*12:03 (source organism: human gammaherpesvirus 4), YYFQSGNEI had a Kd of at least 20000 nM.

EEAKLFFQV yielded a Kd in the test with HLA-B*40:01 (source organism: Yersinia pestis Antiqua) of 6.4 nM.

In general, IC50 refers to the concentration needed to halve the response being measured. Lower therefore signals greater potency. In the case of FMHEQGYSH, the values for the IC50 in the test with HLA-B*08:01 [1] (setting [13]), with HLA-A*02:01 [2] (setting [13]) and with HLA-B*15:01 [3] were at least 301000 nM, 9720 nM and 14800 nM, respectively.

In the test with HLA-B*40:01 (source organism: Bacillus anthracis str. A0488), HEYQGKAVL yielded a Kd of 5.1 nM.

In the test with HLA-B*40:01 (setting [14]), NELGVPFHL returned a Kd of 2.1 nM.

Turning to LPFQNIHPITI, the Kd with HLA-B*07:02 (source organism: Influenza A virus (A/duck/Bavaria/1/1977(H1N1))) came out at 57.4 nM.

As for FLRATTELR, the figures for the IC50 in the test with HLA-B*08:01 [1] (setting [15]), with HLA-A*03:01 [4] (setting [16]) and with HLA-A*02:01 [2] (setting [16]) were at least 87800 nM, 26100 nM and 56200 nM, respectively.

In the case of VLPFDIKYI, the Kd in the test with HLA-C*06:02 amounted to 3390 nM; in the test with HLA-A*02:02, 135 nM; with HLA-A*02:06 it was 506 nM; in the test with HLA-A*02:03, 9.68 nM; with HLA-A*02:01 [5] it was 15 nM.

Consider TIHDRIPHR, for which the Kd worked out at 61.9 nM with HLA-A*03:01 [6] (setting [14]) and 20.4 nM in the test with HLA-A*31:01 (setting [14]).

LEPRVFGWM yielded a Kd with HLA-B*40:01 (source organism: Escherichia coli F11) of 71.3 nM.

Turning to AIYESNIGY, the Kd was at least 20000 nM with HLA-A*31:01 (source organism: Francisella tularensis subsp. tularensis FSC198), 15.1 nM with HLA-A*11:01 [7] (setting [17]) and 8.3 nM with HLA-A*03:01 [8] (setting [17]).

In the test with HLA-B*40:01 (source organism: Escherichia coli 536), LETCHRNAF displayed a Kd of 1030 nM.

GLLIVKTVL: the values for the IC50 with HLA-B*08:01 [1] (setting [15]), with HLA-A*24:02 and with HLA-A*02:01 [2] (setting [15]) were at least 135000 nM, at least 105000 nM and 294 nM, respectively.

On to GDIKASNIV, for which the IC50 with HLA-B*08:01 [1] (setting [13]) was at least 298000 nM.

In turn, NPRMFLAM yielded a Kd in the test with HLA-B*07:02 (source organism: Influenza A virus (A/Fort Monmouth/1/1947-mouse adapted(H1N1))) of 372 nM.

In the test with HLA-B*07:02 (source organism: Influenza A virus), APSPYNSRF displayed a Kd of 7.1 nM.

With TPAVCGPVI, the Kd is 23.8 nM with HLA-B*07:02 (setting [18]), 1860 nM in the test with HLA-B*51:01 (setting [18]) and at least 20000 nM with HLA-B*15:01 [9] (setting [18]).

Turning to TMNSRYYLV, the Kd with HLA-B*46:01, in the test with HLA-B*27:03, in the test with HLA-A*03:01 [6] (setting [19]), with HLA-B*15:17, in the test with HLA-B*57:01 and with HLA-B*51:01 (setting [19]) was at least 20000 nM throughout. For the same sequence, the Kd was 72.5 nM with HLA-A*31:01 (setting [19]), at least 20000 nM with HLA-B*18:01, at least 20000 nM in the test with HLA-B*15:01 [9] (setting [19]) and at least 20000 nM with HLA-A*26:01.

Regarding AVARKHHTK, the figures for the IC50 with HLA-A*11:01 [10], with HLA-B*08:01 [1] (source organism: Variola virus) and with HLA-A*03:01 [4] (source organism: Variola virus) were 471 nM, at least 436000 nM and 1460 nM, respectively.

LLAKSVFNSLY showed a Kd with HLA-A*01:01 (source organism: Influenza A virus (A/X-31(H3N2))) of 93 nM.

Consider FQRAIMNAM, for which the values for the Kd in the test with HLA-B*08:01 [11], with HLA-B*39:01 and in the test with HLA-C*12:03 (source organism: Escherichia coli MS 119-7) were 154 nM, 37.7 nM and 99 nM, respectively.

Sequence IEHALAHQL had a Kd with HLA-B*40:01 (source organism: Salmonella enterica subsp. enterica serovar Typhi) of 7.7 nM.

Regarding ELRTFSILN, the IC50 is at least 302000 nM in the test with HLA-B*08:01 [1] (setting [15]) and 30100 nM with HLA-A*24:02.

In turn, ITDMRNGFN registered a Kd in the test with HLA-A*01:01 (source organism: Escherichia coli O139:H28 str. E24377A) of at least 20000 nM.

Regarding ERQLAKAII, the half-maximal inhibitory concentration (IC50) in the test with HLA-B*08:01 [1] (source organism: Vaccinia virus Copenhagen) was at least 111000 nM.

For the sequence FIYGYLEPV, the Kd in the test with HLA-A*02:19 is 2 nM; with HLA-A*02:11, at most 1 nM; with HLA-A*02:12 it was at most 1 nM; in the test with HLA-C*12:03 (source organism: Orthohantavirus) it was 12 nM; in the test with HLA-A*02:01 [12], at most 1 nM; with HLA-A*69:01 it was at most 1 nM.

As for LLARFGLEK, the Kd came out at 1400 nM with HLA-A*31:01 (source organism: Listeria monocytogenes J0161), 10.3 nM with HLA-A*11:01 [7] (setting [20]) and 14.1 nM with HLA-A*03:01 [8] (setting [20]).

As to STMRRMALR, the Kd with HLA-B*15:42 was at least 5000 nM; with HLA-B*83:01, at least 5000 nM; with HLA-A*01:01 (source organism: Homo sapiens) it was at least 20000 nM; with HLA-A*29:02, at least 20000 nM; in the test with HLA-B*45:06 it was at least 5000 nM.
